{"source": "the Human Domainome abundance scans (Beltran et al. 2025)", "parents": {"B1": {"name": "Receptor-interacting serine/threonine-protein kinase 2, residues 438 to 518; numbered along this chain, O43353 (parent)", "chain": "QWIQSKREDIVNQMTEACLNQSLDALLSRDLIMKEDYELVSTKPTRTSKVRQLLDTTDIQGEEFAKVIVQKLKDNKQMGLQ"}}, "note": "± gives the uncertainty stated by the source."}
{"variants_of": "B1", "test": "abundance fitness (aPCA) (normalised: wild type 0, dead -1); higher = more abundant; growth selection in yeast, the domain comes from the species named", "conditions": "Homo sapiens"}
{"variant": "QWIQSKREDIVNQMTEACLNQSLDALLSRDLIMKEDYELVSTKPTRTSKVRQLLDTTDIQGEEFAHVIVQKLKDNKQMGLQ", "abundance fitness": "-0.459 ± 0.12"}
{"variant": "QWIQSKREDIVNQMTEACLNQSLDALLSRDLIMKEDYELVSTKPTRTSKVRQLLDTTDIQGEEFAIVIVQKLKDNKQMGLQ", "abundance fitness": "-0.757 ± 0.21"}
{"variant": "QWIQSKREDIVNQMTEACLNQSLDALLSRDLIMKEDYELVSTKPTRTSKVRQLLDTTDIQGEEFALVIVQKLKDNKQMGLQ", "abundance fitness": "-0.555 ± 0.062"}
{"variant": "QWIQSKREDIVNQMTEACLNQSLDALLSRDLIMKEDYELVSTKPTRTSKVRQLLDTTDIQGEEFAMVIVQKLKDNKQMGLQ", "abundance fitness": "-0.192 ± 0.14"}
{"variant": "QWIQSKREDIVNQMTEACLNQSLDALLSRDLIMKEDYELVSTKPTRTSKVRQLLDTTDIQGEEFANVIVQKLKDNKQMGLQ", "abundance fitness": "-0.58 ± 0.43"}
{"variant": "QWIQSKREDIVNQMTEACLNQSLDALLSRDLIMKEDYELVSTKPTRTSKVRQLLDTTDIQGEEFAPVIVQKLKDNKQMGLQ", "abundance fitness": "-0.471 ± 0.059"}
{"variant": "QWIQSKREDIVNQMTEACLNQSLDALLSRDLIMKEDYELVSTKPTRTSKVRQLLDTTDIQGEEFAQVIVQKLKDNKQMGLQ", "abundance fitness": "-0.135 ± 0.074"}
{"variant": "QWIQSKREDIVNQMTEACLNQSLDALLSRDLIMKEDYELVSTKPTRTSKVRQLLDTTDIQGEEFARVIVQKLKDNKQMGLQ", "abundance fitness": "-0.166 ± 0.048"}
{"variant": "QWIQSKREDIVNQMTEACLNQSLDALLSRDLIMKEDYELVSTKPTRTSKVRQLLDTTDIQGEEFATVIVQKLKDNKQMGLQ", "abundance fitness": "-0.187 ± 0.13"}
{"variant": "QWIQSKREDIVNQMTEACLNQSLDALLSRDLIMKEDYELVSTKPTRTSKVRQLLDTTDIQGEEFAVVIVQKLKDNKQMGLQ", "abundance fitness": "-0.702 ± 0.074"}
{"variant": "QWIQSKREDIVNQMTEACLNQSLDALLSRDLIMKEDYELVSTKPTRTSKVRQLLDTTDIQGEEFAYVIVQKLKDNKQMGLQ", "abundance fitness": "-0.874 ± 0.42"}
{"variant": "QWIQSKREDIVNQMTEACLNQSLDALLSRDLIMKEDYELVSTKPTRTSKVRQLLDTTDIQGEEFAKAIVQKLKDNKQMGLQ", "abundance fitness": "-0.674 ± 0.077"}
{"variant": "QWIQSKREDIVNQMTEACLNQSLDALLSRDLIMKEDYELVSTKPTRTSKVRQLLDTTDIQGEEFAKCIVQKLKDNKQMGLQ", "abundance fitness": "-0.33 ± 0.14"}
{"variant": "QWIQSKREDIVNQMTEACLNQSLDALLSRDLIMKEDYELVSTKPTRTSKVRQLLDTTDIQGEEFAKDIVQKLKDNKQMGLQ", "abundance fitness": "-0.453 ± 0.26"}
{"variant": "QWIQSKREDIVNQMTEACLNQSLDALLSRDLIMKEDYELVSTKPTRTSKVRQLLDTTDIQGEEFAKEIVQKLKDNKQMGLQ", "abundance fitness": "-0.294 ± 0.11"}
{"variant": "QWIQSKREDIVNQMTEACLNQSLDALLSRDLIMKEDYELVSTKPTRTSKVRQLLDTTDIQGEEFAKFIVQKLKDNKQMGLQ", "abundance fitness": "-0.945 ± 0.24"}
{"variant": "QWIQSKREDIVNQMTEACLNQSLDALLSRDLIMKEDYELVSTKPTRTSKVRQLLDTTDIQGEEFAKGIVQKLKDNKQMGLQ", "abundance fitness": "-0.639 ± 0.07"}
{"variant": "QWIQSKREDIVNQMTEACLNQSLDALLSRDLIMKEDYELVSTKPTRTSKVRQLLDTTDIQGEEFAKHIVQKLKDNKQMGLQ", "abundance fitness": "-0.396 ± 0.19"}
{"variant": "QWIQSKREDIVNQMTEACLNQSLDALLSRDLIMKEDYELVSTKPTRTSKVRQLLDTTDIQGEEFAKIIVQKLKDNKQMGLQ", "abundance fitness": "0.164 ± 0.14"}
{"variant": "QWIQSKREDIVNQMTEACLNQSLDALLSRDLIMKEDYELVSTKPTRTSKVRQLLDTTDIQGEEFAKLIVQKLKDNKQMGLQ", "abundance fitness": "-0.51 ± 0.06"}
{"variant": "QWIQSKREDIVNQMTEACLNQSLDALLSRDLIMKEDYELVSTKPTRTSKVRQLLDTTDIQGEEFAKMIVQKLKDNKQMGLQ", "abundance fitness": "-0.674 ± 0.1"}
{"variant": "QWIQSKREDIVNQMTEACLNQSLDALLSRDLIMKEDYELVSTKPTRTSKVRQLLDTTDIQGEEFAKNIVQKLKDNKQMGLQ", "abundance fitness": "-0.651 ± 0.42"}
{"variant": "QWIQSKREDIVNQMTEACLNQSLDALLSRDLIMKEDYELVSTKPTRTSKVRQLLDTTDIQGEEFAKPIVQKLKDNKQMGLQ", "abundance fitness": "-0.562 ± 0.08"}
{"variant": "QWIQSKREDIVNQMTEACLNQSLDALLSRDLIMKEDYELVSTKPTRTSKVRQLLDTTDIQGEEFAKQIVQKLKDNKQMGLQ", "abundance fitness": "-0.568 ± 0.12"}
{"variant": "QWIQSKREDIVNQMTEACLNQSLDALLSRDLIMKEDYELVSTKPTRTSKVRQLLDTTDIQGEEFAKRIVQKLKDNKQMGLQ", "abundance fitness": "-0.854 ± 0.087"}
{"variant": "QWIQSKREDIVNQMTEACLNQSLDALLSRDLIMKEDYELVSTKPTRTSKVRQLLDTTDIQGEEFAKTIVQKLKDNKQMGLQ", "abundance fitness": "-0.305 ± 0.086"}
{"variant": "QWIQSKREDIVNQMTEACLNQSLDALLSRDLIMKEDYELVSTKPTRTSKVRQLLDTTDIQGEEFAKWIVQKLKDNKQMGLQ", "abundance fitness": "-0.95 ± 0.15"}
{"variant": "QWIQSKREDIVNQMTEACLNQSLDALLSRDLIMKEDYELVSTKPTRTSKVRQLLDTTDIQGEEFAKVAVQKLKDNKQMGLQ", "abundance fitness": "-0.367 ± 0.081"}
{"variant": "QWIQSKREDIVNQMTEACLNQSLDALLSRDLIMKEDYELVSTKPTRTSKVRQLLDTTDIQGEEFAKVCVQKLKDNKQMGLQ", "abundance fitness": "-0.866 ± 0.19"}
{"variant": "QWIQSKREDIVNQMTEACLNQSLDALLSRDLIMKEDYELVSTKPTRTSKVRQLLDTTDIQGEEFAKVEVQKLKDNKQMGLQ", "abundance fitness": "-0.152 ± 0.18"}
{"variant": "QWIQSKREDIVNQMTEACLNQSLDALLSRDLIMKEDYELVSTKPTRTSKVRQLLDTTDIQGEEFAKVFVQKLKDNKQMGLQ", "abundance fitness": "-0.924 ± 0.21"}
{"variant": "QWIQSKREDIVNQMTEACLNQSLDALLSRDLIMKEDYELVSTKPTRTSKVRQLLDTTDIQGEEFAKVGVQKLKDNKQMGLQ", "abundance fitness": "-0.497 ± 0.086"}
{"variant": "QWIQSKREDIVNQMTEACLNQSLDALLSRDLIMKEDYELVSTKPTRTSKVRQLLDTTDIQGEEFAKVHVQKLKDNKQMGLQ", "abundance fitness": "-0.508 ± 0.082"}
{"variant": "QWIQSKREDIVNQMTEACLNQSLDALLSRDLIMKEDYELVSTKPTRTSKVRQLLDTTDIQGEEFAKVKVQKLKDNKQMGLQ", "abundance fitness": "-0.909 ± 0.22"}
